The values that follow come from PMC12102759 (2025).

First the molecules themselves.
B1: RNF115 peptide 69-84 (E3 ubiquitin-protein ligase RNF115), 16-mer library wild type / MDM2 SWIB (MDM2 SWIB/MDM2 domain, residues 17-125) (parent complex)
chain 1: THFAELWGHLDHTMFF
chain 2: SQIPASEQETLVRPKPLLLKLLKSVGAQKDTYTMKEVLFYLGQYIMTKRLYDEKQQHIVYCSNDLLGDLFGVPSFSVKEHRKIYTMIYRNLVVVNQQESSDSGTSVSEN
B2: MXI1 peptide 6-21 (Max-interacting protein 1), 16-mer library wild type / SIN3A PAH2 (SIN3A PAH domain, residues 295-383) (parent complex)
chain 1: MINVQRLLEAAEFLER
chain 2: SLQNNQPVEFNHAINYVNKIKNRFQGQPDIYKAFLEILHTYQKEQRNAKEAGGNYTPALTEQEVYAQVARLFKNQEDLLSEFGQFLPDA

Variants of B1 are the subject of one test. As to the kind of experiment: proteomic peptide phage display deep mutational scan (ProP-PD DMS): M13 P8 16-mer library selected against immobilised GST-tagged bait for four days (rounds), NGS of the eluted pools per day and pseudo-replica; bait immobilised on MaxiSorp plates (10 µg), library pre-cleared on GST, 2 h binding at 4 °C, five washes; one round per day, days 1-4; value from days 2 and 3.
In the case of chain 1 H9D, the screen value is 0.0019 average fractional NGS count over selection days 2 and 3 (reads of this peptide / all reads for the bait, averaged over …. The same measure, in the same setting: the figure for chain 1 H9W is 0.000883 average fractional NGS count over selection days 2 and 3 (reads of this peptide / all reads for the bait, averaged over …; for chain 1 H9E it is 0.00208 average fractional NGS count over selection days 2 and 3 (reads of this peptide / all reads for the bait, averaged over …. Consider chain 1 H9Y, for which the screen value is 0.000619 average fractional NGS count over selection days 2 and 3 (reads of this peptide / all reads for the bait, averaged over …. Regarding chain 1 H9Q, the screen value is 0.00185 average fractional NGS count over selection days 2 and 3 (reads of this peptide / all reads for the bait, averaged over ….

Take chain 1 H9M: the screen value was 0.00238 average fractional NGS count over selection days 2 and 3 (reads of this peptide / all reads for the bait, averaged over ….

Regarding chain 1 H9S, the screen value was 0.00629 average fractional NGS count over selection days 2 and 3 (reads of this peptide / all reads for the bait, averaged over ….

With chain 1 H12A, the screen value was 0.00464 average fractional NGS count over selection days 2 and 3 (reads of this peptide / all reads for the bait, averaged over …. As for chain 1 H12K, the screen value is 0.00015 average fractional NGS count over selection days 2 and 3 (reads of this peptide / all reads for the bait, averaged over …. For the variant chain 1 H12I, the screen value was 0.000167 average fractional NGS count over selection days 2 and 3 (reads of this peptide / all reads for the bait, averaged over …. On to chain 1 F15N, for which the screen value was 0.000153 average fractional NGS count over selection days 2 and 3 (reads of this peptide / all reads for the bait, averaged over ….

On to chain 1 F15G, for which the screen value was 0.00105 average fractional NGS count over selection days 2 and 3 (reads of this peptide / all reads for the bait, averaged over ….

As to chain 1 F15P, the screen value is 0.00458 average fractional NGS count over selection days 2 and 3 (reads of this peptide / all reads for the bait, averaged over ….

With chain 1 F15T, the screen value was 0.00702 average fractional NGS count over selection days 2 and 3 (reads of this peptide / all reads for the bait, averaged over …. Turning to chain 1 F15A, the screen value is 0.0214 average fractional NGS count over selection days 2 and 3 (reads of this peptide / all reads for the bait, averaged over …. On to chain 1 F15I, for which the screen value is 0.00139 average fractional NGS count over selection days 2 and 3 (reads of this peptide / all reads for the bait, averaged over ….

Turning to chain 1 F15V, the screen value was 0.0496 average fractional NGS count over selection days 2 and 3 (reads of this peptide / all reads for the bait, averaged over …. Same read-out and setting: the result for chain 1 D11I reads 0.000389 average fractional NGS count over selection days 2 and 3 (reads of this peptide / all reads for the bait, averaged over …; that for chain 1 D11F, 8.75e-05 average fractional NGS count over selection days 2 and 3 (reads of this peptide / all reads for the bait, averaged over ….

Turning to chain 1 D11G, the screen value is 0.000731 average fractional NGS count over selection days 2 and 3 (reads of this peptide / all reads for the bait, averaged over …. As to chain 1 D11R, the screen value was 0.000139 average fractional NGS count over selection days 2 and 3 (reads of this peptide / all reads for the bait, averaged over ….

As for chain 1 D11N, the screen value was 0.00248 average fractional NGS count over selection days 2 and 3 (reads of this peptide / all reads for the bait, averaged over …. As for chain 1 D11K, the screen value is 0.000112 average fractional NGS count over selection days 2 and 3 (reads of this peptide / all reads for the bait, averaged over ….

As to chain 1 A4H, the screen value was 0.00203 average fractional NGS count over selection days 2 and 3 (reads of this peptide / all reads for the bait, averaged over ….

On to chain 1 A4D, for which the screen value is 0.000369 average fractional NGS count over selection days 2 and 3 (reads of this peptide / all reads for the bait, averaged over …. In the case of chain 1 A4Q, the screen value was 0.000494 average fractional NGS count over selection days 2 and 3 (reads of this peptide / all reads for the bait, averaged over …. The same measure, in the same setting: the figure for chain 1 A4Y is 0.000442 average fractional NGS count over selection days 2 and 3 (reads of this peptide / all reads for the bait, averaged over …; for chain 1 A4N it is 0.000396 average fractional NGS count over selection days 2 and 3 (reads of this peptide / all reads for the bait, averaged over ….

In the case of chain 1 A4L, the screen value was 0.000327 average fractional NGS count over selection days 2 and 3 (reads of this peptide / all reads for the bait, averaged over …. Take chain 1 A4G: the screen value was 0.000193 average fractional NGS count over selection days 2 and 3 (reads of this peptide / all reads for the bait, averaged over ….

chain 1 T1N: the screen value was 0.000471 average fractional NGS count over selection days 2 and 3 (reads of this peptide / all reads for the bait, averaged over ….

As to chain 1 T1Q, the screen value was 0.00081 average fractional NGS count over selection days 2 and 3 (reads of this peptide / all reads for the bait, averaged over ….

As to chain 1 T1S, the screen value is 0.00105 average fractional NGS count over selection days 2 and 3 (reads of this peptide / all reads for the bait, averaged over …. As for chain 1 T1A, the screen value was 0.00514 average fractional NGS count over selection days 2 and 3 (reads of this peptide / all reads for the bait, averaged over …. Turning to chain 1 T1L, the screen value was 0.000174 average fractional NGS count over selection days 2 and 3 (reads of this peptide / all reads for the bait, averaged over ….

For chain 1 T1P, the screen value is 0.00338 average fractional NGS count over selection days 2 and 3 (reads of this peptide / all reads for the bait, averaged over …. As for chain 1 T1I, the screen value was 0.000116 average fractional NGS count over selection days 2 and 3 (reads of this peptide / all reads for the bait, averaged over …. With chain 1 M14A, the screen value was 0.00114 average fractional NGS count over selection days 2 and 3 (reads of this peptide / all reads for the bait, averaged over …. The same measure, in the same setting: the figure for chain 1 M14L is 0.000799 average fractional NGS count over selection days 2 and 3 (reads of this peptide / all reads for the bait, averaged over …; for chain 1 M14S it is 0.00183 average fractional NGS count over selection days 2 and 3 (reads of this peptide / all reads for the bait, averaged over …; for chain 1 M14V it is 0.00137 average fractional NGS count over selection days 2 and 3 (reads of this peptide / all reads for the bait, averaged over …. Regarding chain 1 M14G, the screen value was 0.000223 average fractional NGS count over selection days 2 and 3 (reads of this peptide / all reads for the bait, averaged over …. chain 1 M14T: the screen value was 0.00238 average fractional NGS count over selection days 2 and 3 (reads of this peptide / all reads for the bait, averaged over …. On the same count and under the same terms, the result for chain 1 T13I reads 0.00105 average fractional NGS count over selection days 2 and 3 (reads of this peptide / all reads for the bait, averaged over …; that for chain 1 T13S, 0.0255 average fractional NGS count over selection days 2 and 3 (reads of this peptide / all reads for the bait, averaged over …. With chain 1 T13L, the screen value was 0.00319 average fractional NGS count over selection days 2 and 3 (reads of this peptide / all reads for the bait, averaged over …. On the same count and under the same terms, the figure for chain 1 T13K is 0.000352 average fractional NGS count over selection days 2 and 3 (reads of this peptide / all reads for the bait, averaged over …; for chain 1 T13N it is 0.00271 average fractional NGS count over selection days 2 and 3 (reads of this peptide / all reads for the bait, averaged over …; for chain 1 L6Y it is 0.00417 average fractional NGS count over selection days 2 and 3 (reads of this peptide / all reads for the bait, averaged over …. With chain 1 L6W, the screen value was 0.000846 average fractional NGS count over selection days 2 and 3 (reads of this peptide / all reads for the bait, averaged over …. With chain 1 L6I, the screen value was 0.000313 average fractional NGS count over selection days 2 and 3 (reads of this peptide / all reads for the bait, averaged over …. In the case of chain 1 L6H, the screen value is 0.00174 average fractional NGS count over selection days 2 and 3 (reads of this peptide / all reads for the bait, averaged over …. Still for that read-out and setting: the result for chain 1 L6Q reads 0.000157 average fractional NGS count over selection days 2 and 3 (reads of this peptide / all reads for the bait, averaged over …; that for chain 1 H2T, 0.00209 average fractional NGS count over selection days 2 and 3 (reads of this peptide / all reads for the bait, averaged over …. chain 1 H2Y: the screen value was 0.000608 average fractional NGS count over selection days 2 and 3 (reads of this peptide / all reads for the bait, averaged over …. Same read-out and setting: the result for chain 1 H2P reads 0.00101 average fractional NGS count over selection days 2 and 3 (reads of this peptide / all reads for the bait, averaged over …. Consider chain 1 H2L, for which the screen value is 0.00441 average fractional NGS count over selection days 2 and 3 (reads of this peptide / all reads for the bait, averaged over …. In the case of chain 1 H2K, the screen value was 0.000959 average fractional NGS count over selection days 2 and 3 (reads of this peptide / all reads for the bait, averaged over …. As to chain 1 G8Q, the screen value is 0.0015 average fractional NGS count over selection days 2 and 3 (reads of this peptide / all reads for the bait, averaged over …. Still for that read-out and setting: the figure for chain 1 G8S is 0.0101 average fractional NGS count over selection days 2 and 3 (reads of this peptide / all reads for the bait, averaged over …. chain 1 G8K: the screen value was 0.000179 average fractional NGS count over selection days 2 and 3 (reads of this peptide / all reads for the bait, averaged over …. Regarding chain 1 G8E, the screen value was 0.00632 average fractional NGS count over selection days 2 and 3 (reads of this peptide / all reads for the bait, averaged over …. On the same count and under the same terms, the result for chain 1 E5Q reads 0.00197 average fractional NGS count over selection days 2 and 3 (reads of this peptide / all reads for the bait, averaged over ….

Variants of B2 are the subject of a further test. The description is as above.
Consider chain 1 M1W, for which the screen value was 0.00153 average fractional NGS count over selection days 2 and 3 (reads of this peptide / all reads for the bait, averaged over …. The same measure, in the same setting: the figure for chain 1 M1I is 0.000114 average fractional NGS count over selection days 2 and 3 (reads of this peptide / all reads for the bait, averaged over …; for chain 1 M1V it is 0.000344 average fractional NGS count over selection days 2 and 3 (reads of this peptide / all reads for the bait, averaged over …. On the same count and under the same terms, the result for chain 1 M1G reads 0.000229 average fractional NGS count over selection days 2 and 3 (reads of this peptide / all reads for the bait, averaged over …. The same measure, in the same setting: the result for chain 1 R6S reads 0.00011 average fractional NGS count over selection days 2 and 3 (reads of this peptide / all reads for the bait, averaged over …; that for chain 1 R6H, 0.00034 average fractional NGS count over selection days 2 and 3 (reads of this peptide / all reads for the bait, averaged over …; that for chain 1 R6Y, 0.00232 average fractional NGS count over selection days 2 and 3 (reads of this peptide / all reads for the bait, averaged over …. For chain 1 R6W, the screen value is 0.0159 average fractional NGS count over selection days 2 and 3 (reads of this peptide / all reads for the bait, averaged over …. For chain 1 R6V, the screen value is 0.000218 average fractional NGS count over selection days 2 and 3 (reads of this peptide / all reads for the bait, averaged over …. The same measure, in the same setting: the result for chain 1 E12N reads 0.000144 average fractional NGS count over selection days 2 and 3 (reads of this peptide / all reads for the bait, averaged over …. Take chain 1 E12S: the screen value was 0.000265 average fractional NGS count over selection days 2 and 3 (reads of this peptide / all reads for the bait, averaged over ….

As to chain 1 E12K, the screen value was 0.00174 average fractional NGS count over selection days 2 and 3 (reads of this peptide / all reads for the bait, averaged over ….
